Assay results published in PMC9482650, “Quantitative fragmentomics allow affinity mapping of interactomes” (Nature Communications, 2022).

T1: APBA2_1, Q99767
T1 sequence (Q99767 563-664, limits assumed, looked up): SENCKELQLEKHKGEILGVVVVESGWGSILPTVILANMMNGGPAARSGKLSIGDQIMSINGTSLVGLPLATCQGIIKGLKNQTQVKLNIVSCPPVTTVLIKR

T2: APBA2_2, Q99767
T2 sequence (Q99767 654-744, limits assumed, looked up): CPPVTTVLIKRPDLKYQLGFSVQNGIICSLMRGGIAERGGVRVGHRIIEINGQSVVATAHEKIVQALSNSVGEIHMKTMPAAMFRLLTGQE

T3: ARHGAP21, Q5T5U3
T3 sequence (Q5T5U3 45-169, limits assumed, looked up): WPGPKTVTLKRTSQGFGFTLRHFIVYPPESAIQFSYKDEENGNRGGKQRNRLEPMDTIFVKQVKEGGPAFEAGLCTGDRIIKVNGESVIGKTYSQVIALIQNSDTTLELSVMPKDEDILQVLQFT

T4: FRMPD1, Q5SYB0
T4 sequence (Q5SYB0 52-145, limits assumed, looked up): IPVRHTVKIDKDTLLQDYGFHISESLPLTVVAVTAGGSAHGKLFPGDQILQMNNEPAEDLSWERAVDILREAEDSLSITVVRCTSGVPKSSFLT

T5: GRIP1_3, Q9Y3R0
T5 sequence (Q9Y3R0 247-346, limits assumed, looked up): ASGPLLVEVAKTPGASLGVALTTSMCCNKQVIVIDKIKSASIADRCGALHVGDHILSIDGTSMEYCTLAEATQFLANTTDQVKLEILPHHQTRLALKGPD

T6: HTRA3, P83110
T6 sequence (P83110 354-453, limits assumed, looked up): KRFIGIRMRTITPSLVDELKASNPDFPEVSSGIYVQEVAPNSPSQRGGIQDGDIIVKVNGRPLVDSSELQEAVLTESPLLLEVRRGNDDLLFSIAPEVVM

T7: LNX2_3, Q8N448
T7 sequence (Q8N448 463-564, limits assumed, looked up): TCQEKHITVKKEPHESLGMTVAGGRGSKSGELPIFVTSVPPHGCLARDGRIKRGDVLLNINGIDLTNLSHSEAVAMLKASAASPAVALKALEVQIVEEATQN

T8: LRRC7, Q96NW7
T8 sequence (Q96NW7 1440-1537, limits assumed, looked up): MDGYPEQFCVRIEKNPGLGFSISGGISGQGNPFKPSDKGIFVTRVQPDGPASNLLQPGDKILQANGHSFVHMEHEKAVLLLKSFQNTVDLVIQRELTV

T9: NHERF3_3, Q5T2W1
T9 sequence (Q5T2W1 238-333, limits assumed, looked up): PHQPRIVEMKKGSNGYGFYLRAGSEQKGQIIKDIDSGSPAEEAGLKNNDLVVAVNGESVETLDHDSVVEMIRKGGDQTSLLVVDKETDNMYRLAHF

T10: NHERF3_4, Q5T2W1
T10 sequence (Q5T2W1 373-468, limits assumed, looked up): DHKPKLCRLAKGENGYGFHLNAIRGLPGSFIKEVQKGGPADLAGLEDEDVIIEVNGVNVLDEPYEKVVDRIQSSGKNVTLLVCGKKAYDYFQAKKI

T11: PDZD2_2, O15018
T11 sequence (O15018 329-429, limits assumed, looked up): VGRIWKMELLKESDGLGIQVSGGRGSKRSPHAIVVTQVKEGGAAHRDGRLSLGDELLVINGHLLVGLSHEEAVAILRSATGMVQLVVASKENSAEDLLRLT

T12: PDZD7_3, Q9H5P4
T12 sequence (Q9H5P4 857-944, limits assumed, looked up): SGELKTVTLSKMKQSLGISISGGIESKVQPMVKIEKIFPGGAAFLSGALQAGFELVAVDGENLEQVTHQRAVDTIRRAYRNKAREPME

T13: TJP3_3, O95049
T13 sequence (O95049 375-456, limits assumed, looked up): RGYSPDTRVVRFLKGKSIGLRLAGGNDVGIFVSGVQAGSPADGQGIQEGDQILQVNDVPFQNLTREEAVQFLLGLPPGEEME


Assays:
Experiment in all cases: holdup assay
Design in all cases: key: below the threshold = too weak to quantify, mostly under pKd 3.1 to 4
Details in all cases: plain residues with an end cap or a label only (N-terminal biotin on a linker: ado-ado)
APBA2_1, Q99767 = target: T1, APBA2_1, Q99767
APBA2_2, Q99767 = target: T2, APBA2_2, Q99767
ARHGAP21, Q5T5U3 = target: T3, ARHGAP21, Q5T5U3
DLG1_1, Q12959 = target: DLG1_1, Q12959
DLG2_3, Q15700 = target: DLG2_3, Q15700
FRMPD1, Q5SYB0 = target: T4, FRMPD1, Q5SYB0
FRMPD3, Q5JV73 = target: FRMPD3, Q5JV73
Sequence of FRMPD3, Q5JV73 (Q5JV73 12-100): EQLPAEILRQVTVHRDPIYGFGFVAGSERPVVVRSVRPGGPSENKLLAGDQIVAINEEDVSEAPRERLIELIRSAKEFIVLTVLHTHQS

GOPC, Q9HD26 = target: GOPC, Q9HD26
GRIP1_3, Q9Y3R0 = target: T5, GRIP1_3, Q9Y3R0
GRIP2_7, Q9C0E4 = target: GRIP2_7, Q9C0E4
Sequence of GRIP2_7, Q9C0E4 (Q9C0E4 934-1023): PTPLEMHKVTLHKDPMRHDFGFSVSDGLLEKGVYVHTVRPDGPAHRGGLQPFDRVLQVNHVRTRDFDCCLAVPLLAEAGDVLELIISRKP

HTRA3, P83110 = target: T6, HTRA3, P83110
IL16_3, Q14005 = target: IL16_3, Q14005
Sequence of IL16_3, Q14005 (Q14005 1107-1207): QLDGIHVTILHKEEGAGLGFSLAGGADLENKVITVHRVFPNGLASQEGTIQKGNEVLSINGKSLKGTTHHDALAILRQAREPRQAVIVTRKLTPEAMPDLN

Inadl_3, Q8NI35 = target: Inadl_3, Q8NI35
Sequence of Inadl_3, Q8NI35 (Q8NI35 359-469): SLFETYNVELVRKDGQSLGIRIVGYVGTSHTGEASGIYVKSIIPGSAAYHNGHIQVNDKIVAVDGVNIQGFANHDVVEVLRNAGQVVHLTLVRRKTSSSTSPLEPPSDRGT

Inadl_5, Q8NI35 = target: Inadl_5, Q8NI35
Sequence of Inadl_5, Q8NI35 (Q8NI35 673-780): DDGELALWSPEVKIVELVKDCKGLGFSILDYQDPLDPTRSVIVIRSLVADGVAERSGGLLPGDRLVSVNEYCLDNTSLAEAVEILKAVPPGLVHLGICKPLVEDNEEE

Inadl_9, Q8NI35 = target: Inadl_9, Q8NI35
Sequence of Inadl_9, Q8NI35 (Q8NI35 1530-1615): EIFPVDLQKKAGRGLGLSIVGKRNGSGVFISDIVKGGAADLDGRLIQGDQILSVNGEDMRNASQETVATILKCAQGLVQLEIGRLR

LNX1_1, Q8TBB1 = target: LNX1_1, Q8TBB1
Sequence of LNX1_1, Q8TBB1 (Q8TBB1 261-371): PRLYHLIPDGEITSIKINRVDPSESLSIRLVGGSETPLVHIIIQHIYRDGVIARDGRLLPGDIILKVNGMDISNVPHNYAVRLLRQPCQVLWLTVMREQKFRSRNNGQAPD

LNX2_3, Q8N448 = target: T7, LNX2_3, Q8N448
LRRC7, Q96NW7 = target: T8, LRRC7, Q96NW7
MAST1, Q9Y2H9 = target: MAST1, Q9Y2H9
Sequence of MAST1, Q9Y2H9 (Q9Y2H9 962-1065): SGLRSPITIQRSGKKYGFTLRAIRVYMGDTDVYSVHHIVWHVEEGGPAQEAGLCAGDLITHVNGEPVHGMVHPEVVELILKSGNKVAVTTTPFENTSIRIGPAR

NHERF3_3, Q5T2W1 = target: T9, NHERF3_3, Q5T2W1
NHERF3_4, Q5T2W1 = target: T10, NHERF3_4, Q5T2W1
PDZD2_2, O15018 = target: T11, PDZD2_2, O15018
PDZD7_3, Q9H5P4 = target: T12, PDZD7_3, Q9H5P4
TJP1_3, Q07157 = target: TJP1_3, Q07157
Sequence of TJP1_3, Q07157 (Q07157 416-512): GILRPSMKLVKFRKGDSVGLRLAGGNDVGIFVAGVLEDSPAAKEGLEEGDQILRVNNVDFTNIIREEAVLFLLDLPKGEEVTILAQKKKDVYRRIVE

TJP3_3, O95049 = target: T13, TJP3_3, O95049

Row | Binder | pKd (APBA2_1, Q99767) | pKd (APBA2_2, Q99767) | pKd (ARHGAP21, Q5T5U3) | pKd (DLG1_1, Q12959) | pKd (DLG2_3, Q15700) | pKd (FRMPD1, Q5SYB0) | pKd (FRMPD3, Q5JV73) | pKd (GOPC, Q9HD26) | pKd (GRIP1_3, Q9Y3R0) | pKd (GRIP2_7, Q9C0E4) | pKd (HTRA3, P83110) | pKd (IL16_3, Q14005) | pKd (Inadl_3, Q8NI35) | pKd (Inadl_5, Q8NI35) | pKd (Inadl_9, Q8NI35) | pKd (LNX1_1, Q8TBB1) | pKd (LNX2_3, Q8N448) | pKd (LRRC7, Q96NW7) | pKd (MAST1, Q9Y2H9) | pKd (NHERF3_3, Q5T2W1) | also measured
1 | HLSTRQGTCV [ATRNL1, Q5VV63] | below the threshold | below the threshold | below the threshold | 4.18 | 4.19 | below the threshold | below the threshold | 3.76 | below the threshold | below the threshold | 4.45 | below the threshold | below the threshold | 4.04 | 4.1 | 4.34 | below the threshold | 3.63 | 4.35 | below the threshold | pKd (NHERF3_4, Q5T2W1): below the threshold; pKd (PDZD2_2, O15018): 4.99; pKd (PDZD7_3, Q9H5P4): 4.2; pKd (TJP1_3, Q07157): below the threshold; pKd (TJP3_3, O95049): below the threshold
2 | HYPASPDSWV [CTNND2, Q9UQB3] | below the threshold | below the threshold | below the threshold | 4.07 | below the threshold | below the threshold | 3.71 | below the threshold | below the threshold | 3.95 | 5.66 | below the threshold | below the threshold | 3.64 | 3.9 | 4.12 | below the threshold | 4.97 | 3.9 | below the threshold | pKd (NHERF3_4, Q5T2W1): below the threshold; pKd (PDZD2_2, O15018): 5.99; pKd (PDZD7_3, Q9H5P4): 4.3; pKd (TJP1_3, Q07157): 3.81; pKd (TJP3_3, O95049): 4.91
3 | KLQNPNQSVV [TYRP1, P17643] | below the threshold | below the threshold | 3.98 | 3.83 | below the threshold | below the threshold | below the threshold | 3.72 | below the threshold | below the threshold | below the threshold | below the threshold | below the threshold | below the threshold | below the threshold | 3.86 | below the threshold | below the threshold | 4.37 | below the threshold | pKd (NHERF3_4, Q5T2W1): below the threshold; pKd (PDZD2_2, O15018): 4.57; pKd (PDZD7_3, Q9H5P4): 4.22; pKd (TJP1_3, Q07157): below the threshold; pKd (TJP3_3, O95049): below the threshold

The next lines start with results.

Row | pKd (APBA2_1, Q99767) | pKd (APBA2_2, Q99767) | pKd (ARHGAP21, Q5T5U3) | pKd (DLG1_1, Q12959) | pKd (DLG2_3, Q15700) | pKd (FRMPD1, Q5SYB0) | pKd (FRMPD3, Q5JV73) | pKd (GOPC, Q9HD26) | pKd (GRIP1_3, Q9Y3R0) | pKd (GRIP2_7, Q9C0E4) | pKd (HTRA3, P83110) | pKd (IL16_3, Q14005) | pKd (Inadl_3, Q8NI35) | pKd (Inadl_5, Q8NI35) | pKd (Inadl_9, Q8NI35) | pKd (LNX1_1, Q8TBB1) | pKd (LNX2_3, Q8N448) | pKd (LRRC7, Q96NW7) | pKd (MAST1, Q9Y2H9) | pKd (NHERF3_3, Q5T2W1) | Binder | also measured
4 | below the threshold | below the threshold | 4.08 | below the threshold | below the threshold | below the threshold | 4.15 | below the threshold | below the threshold | 4.36 | 4.49 | below the threshold | 4.9 | below the threshold | 3.69 | 3.94 | below the threshold | 3.75 | below the threshold | below the threshold | VCMGDHWFDV [PRKN, O60260] | pKd (NHERF3_4, Q5T2W1): below the threshold; pKd (PDZD2_2, O15018): 4.57; pKd (PDZD7_3, Q9H5P4): below the threshold; pKd (TJP1_3, Q07157): below the threshold; pKd (TJP3_3, O95049): 4.57
5 | below the threshold | below the threshold | below the threshold | 3.71 | 3.87 | below the threshold | below the threshold | below the threshold | below the threshold | below the threshold | 3.74 | below the threshold | below the threshold | below the threshold | below the threshold | 3.78 | below the threshold | below the threshold | 4.14 | below the threshold | QRYPGNQTTC [CCL24, O00175] | pKd (NHERF3_4, Q5T2W1): below the threshold; pKd (PDZD2_2, O15018): below the threshold; pKd (PDZD7_3, Q9H5P4): below the threshold; pKd (TJP1_3, Q07157): below the threshold; pKd (TJP3_3, O95049): below the threshold
6 | below the threshold | below the threshold | below the threshold | below the threshold | below the threshold | below the threshold | below the threshold | 3.7 | below the threshold | below the threshold | 3.8 | below the threshold | below the threshold | below the threshold | 3.71 | below the threshold | below the threshold | below the threshold | 3.62 | below the threshold | PKSNSSKEYV [CLDN7, O95471] | pKd (NHERF3_4, Q5T2W1): below the threshold; pKd (PDZD2_2, O15018): 3.82; pKd (PDZD7_3, Q9H5P4): below the threshold; pKd (TJP1_3, Q07157): below the threshold; pKd (TJP3_3, O95049): below the threshold
